Patent publication US11453711B2, “Fusion proteins of GLP-1 and GDF15 and conjugates thereof” (BEIJING QL BIOPHARMACEUTICAL CO., LTD., priority 2019, dated 2022)

Key:
[1] = Efficacy in spontaneously obese cynomolgus monkeys, sc every three days for 49 days; assay type: in vivo; conditions: obese monkeys, 1, 3 and 10 nmol/kg sc every three days
Protocol: FIGS. 10A-10B show In vivo efficacy in obese monkey. Naïve male spontaneously obese cynomolgus monkeys were injected every three days subcutaneously with designated protein MLC093 with different concentrations for 49 days.
Naïve male spontaneously obese cynomolgus monkeys with BMI>40 kg/m^2 were injected every three days subcutaneously with designated protein MLC093 for 49 days. Body weight was measured once a week and food intake was measured daily for each monkey. Six animals were used for vehicle or MLC093 1 nmol/kg treamment group and seven animals were used for MLC093 3 nmol/kg or MLC093 10 nmol/kg treamment group. Day 1 and Day 49 are first day and last day of molecule dosage. % BW loss=100*(BW on Day n-BW on Day 1)/(BW on Day 1). Cumulative food intake on Day n represents sum of food intake from Day 1 to Day n. Data are indicated as mean values and standard error (SEM) or pooled values.

[2] = PK study in non-human primates, single sc dose 5 nmol/kg, plasma ELISA; conditions: monkey, single sc dose 5 nmol/kg
Protocol: Plasma samples were collected pre-dose (−5 min), 2 hr, 4 hr, 6 hr, 8 hr, 24 hr, 48 hr, 72 hr, 96 hr, 120 hr, 144 hr, 216 hr, 288 hr, 360 hr, 432 hr and 504 hr after the injection. The concentrations of the fusion protein conjugates in the plasma were measured by an ELISA assay which has immunoreactivity towards both GDF15 and intact N-terminal of GLP-1. Based on the graph showing plasma concentration of each protein versus time after subcutaneous injection, the pharmacokinetic parameters (including Tmax, Cmax, T1/2, AUC) were calculated by WinNonlin software.

[3] = Body weight and food intake in C57BL/6 mice, fusion protein conjugates, 30 nmol/kg daily 10 days; assay type: in vivo
Summary of the method: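 Male C57BL/6 mice received fusion protein conjugates by daily subcutaneous injection, with dosing running from Day 1 to Day 10. Body weight was recorded daily per animal and food intake daily per group. Body weight reduction was expressed relative to vehicle percent loss from Day 1. Cumulative food intake reduction was expressed as percent decrease versus vehicle.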

[4] = Pharmacokinetic measurement in mouse, single sc dose 30 nmol/kg, plasma ELISA
Protocol: Each fusion protein was injected subcutaneously into C57BL/6 mice (n=3/group) once and plasma samples were collected at designed time points and analyzed by ELISA method. Plasma concentrations are indicated as mean values and standard error (SEM).
6-8 week old male C57BL/6 mice were administrated in a single subcutaneous dose of 30 nmol/kg of the fusion protein conjugates or unconjugated fusion proteins (i.e., MLC002, MLC004, MLC005, MLC006, MLC007, MLC008, MLC009, MLC013, MLC017, MLC047, MLC074, MLC075, MLC089, MLC093, MLC003 and MLC019) (n=3/group). Plasma samples were collected pre-dose (−5 min), 0.5 hr, 1 hr, 2 hr, 4 hr, 6 hr, 8 hr, 12 hr, 24 hr, 48 hr and 72 hr after the injection. The concentrations of the fusion protein conjugates in the plasma were measured by an ELISA assay which has immunoreactivity towards both GDF15 and intact N-terminal of GLP-1. Based on the graph showing plasma concentration of each protein versus time after subcutaneous injection, the pharmacokinetic parameters (including Tmax, Cmax, T1/2, AUC) were calculated by WinNonlin software.

[5] = Separate DIO mice study with inactivated control molecules, daily sc 22 days; assay type: in vivo, DIO mice (C57BL/6 mice on high fat diet)
Protocol: FIGS. 9A-9G show In vivo efficacy in DIO mice. To evaluate the body weight, food intake and glucose effects of the fusion proteins, 17 week old DIO mice (C57BL/6 mice on high fat diet for 13 weeks) were dosed everyday subcutaneously with different concentrations of proteins for 22 days. […] Data are expressed as mean values and standard error (SEM) for FIGS. 9A and 9C-G. n=5 for each treatment group. For FIG. 9B, a pooled food intake was measured for each treatment group.
17 week old DIO male C57BL/6 mice (˜45 g) were injected everyday subcutaneously with designated proteins (i.e., MLC089, MLC093) for 28 days. Food intake and body weight were measured daily and five animals were used for each treatment group. Fasting glucose was also monitored on designated days. Body weight and glucose were monitored for each individual animal, but food intake for each group animals was measured together. Day 1 and Day 28 are first day and last day of molecule dosage. % BW loss=100*(BW on Day n-BW on Day 1)/(BW on Day 1). Cumulative food intake on Day n represents sum of food intake from Day 1 to Day n. Terminal blood was collected and EDTA-2K plasma was prepared and frozen at −80 C for biomarker measurement. Liver was also collected and frozen in liquid nitrogen and store at −80 C. Data are indicated as mean values and standard error (SEM) or pooled values.

B1: MLC093: fusion polypeptide SEQ ID NO: 381 conjugated with Moiety B at 33C of Linker (conjugate)
chain: HGEGTFTSDVSSYLEEQAAKEFIAWLVRGGGGAQPGAQPGAQPGAQPGAQPGAQPGAQPGAQPCQEPGAQPGQEPGAQPGQEPGAQPGQEPGAQPGQEPGAQPGQEPGAQPARQGDHCPLGPGRCCRLHTVRASLEDLGWADWVLSPREVQVTMCIGACPSQFRAANLHAQIKTSLHRLKPDTVPAPCCVPASYNPMVLIQKTDTGVSLQTYDDLLAKDCHCI
modifications: Moiety B conjugated at linker Cys33
body weight loss [1]: good efficacy on body weight loss and food intake suppression | food intake suppression [1]: good efficacy on body weight loss and food intake suppression | AUC0-96 h [2]: 3.843 µM·h | Terminal t1/2 [2]: 41 h | Tmax [2]: 16 h | Cmax ([2]; read-out: Cmax (nmol/L)): 56.2 nmol/L | Body weight reduction at 30 nmol/kg (% reduction compared to vehicle)(Day11) [3]: 26.2% | Cumulative food intake reduction at 30 nmol/kg (% reduction compared to vehicle)(Day11) [3]: 43.8% | Cmax ([4]; read-out: Cmax (nmol/L), single sc dose 30 nmol/kg): 120 nmol/L | AUC0-24 h ([4]; single sc dose 30 nmol/kg): 2.1637 µM·h | Terminal t1/2 ([4]; single sc dose 30 nmol/kg): 15.9 h | Tmax ([4]; single sc dose 30 nmol/kg): 16.0 h | liver triglyceride contents ([5]; Day 22, FIG. 9G, relative to vehicle or MLC114 and MLC113): reduction of liver triglyceride contents | efficacy ([5]; separate DIO study, FIG. 9A-9G, versus MLC114 and MLC113): better efficacy than corresponding control molecules having inactivated GLP-1 or GDF15 mutants | body weight reduction ([5]; separate DIO study, FIG. 9A, versus MLC114 and MLC113): better body weight reduction, food intake suppression and glucose control | food intake suppression ([5]; separate DIO study, FIG. 9B, versus MLC114 and MLC113): better body weight reduction, food intake suppression and glucose control | glucose control ([5]; separate DIO study, FIG. 9C, versus MLC114 and MLC113): better body weight reduction, food intake suppression and glucose control | plasma triglyceride level ([5]; terminal plasma Day 22, FIG. 9D, relative to vehicle or MLC114 and MLC113): therapeutic efficacy in reducing plasma triglyceride, cholesterol and insulin levels | plasma cholesterol level ([5]; terminal plasma Day 22, FIG. 9E, relative to vehicle or MLC114 and MLC113): therapeutic efficacy in reducing plasma triglyceride, cholesterol and insulin levels | plasma insulin level ([5]; terminal plasma Day 22, FIG. 9F, relative to vehicle or MLC114 and MLC113): therapeutic efficacy in reducing plasma triglyceride, cholesterol and insulin levels
